Assay results as given in patent publication US20170204454A1 (THERMO FISHER SCIENTIFIC BALTICS UAB, published 2017).

How the values were obtained:
[1] = target: T1, Pyrococcus DNA polymerase with a sequence non-specific DNA binding domain (Pyrococcus); assay: indirect ELISA, apparent dissociation constant
T1 construct: It was the immunogen and the ELISA and Western blot antigen; also called Pyrococcus DNA polymerase-DBD
T1 chain: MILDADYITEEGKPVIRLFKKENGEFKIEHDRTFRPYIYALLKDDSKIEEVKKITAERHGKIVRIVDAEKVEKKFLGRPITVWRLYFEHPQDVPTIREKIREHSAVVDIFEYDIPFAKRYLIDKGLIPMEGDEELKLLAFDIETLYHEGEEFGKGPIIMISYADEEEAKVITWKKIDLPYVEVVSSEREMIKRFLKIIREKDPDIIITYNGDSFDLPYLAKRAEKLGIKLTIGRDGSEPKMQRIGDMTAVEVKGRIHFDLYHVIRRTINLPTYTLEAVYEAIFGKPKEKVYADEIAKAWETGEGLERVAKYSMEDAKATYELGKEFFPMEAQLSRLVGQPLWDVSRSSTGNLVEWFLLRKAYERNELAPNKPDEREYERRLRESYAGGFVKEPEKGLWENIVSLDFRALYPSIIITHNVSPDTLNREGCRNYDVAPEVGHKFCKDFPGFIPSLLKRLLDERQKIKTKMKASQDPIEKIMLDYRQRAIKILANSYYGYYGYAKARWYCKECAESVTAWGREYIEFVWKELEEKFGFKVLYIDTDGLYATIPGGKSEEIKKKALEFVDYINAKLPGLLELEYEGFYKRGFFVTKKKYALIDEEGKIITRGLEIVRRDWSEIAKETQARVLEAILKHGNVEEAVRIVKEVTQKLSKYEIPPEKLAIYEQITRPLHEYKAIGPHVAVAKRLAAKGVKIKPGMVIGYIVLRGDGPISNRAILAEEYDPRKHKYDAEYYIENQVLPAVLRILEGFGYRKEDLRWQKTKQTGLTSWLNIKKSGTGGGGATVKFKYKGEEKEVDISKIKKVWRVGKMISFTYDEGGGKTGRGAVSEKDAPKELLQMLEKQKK
Protocol: The affinity of monoclonal antibodies was determined by measuring their apparent dissociation constants (kD) by an indirect ELISA (Table 2).

[2] = target: T1, Pyrococcus DNA polymerase with a …; assay: cell-based or functional assay

B1: 5D3 (antibody, V domains shown)
VH: SGPGLVAPSQSLSITCTVSGFSLTDYGVSWVRQSPGQGLEWLGIIWGDGSTDYHSSLISRLRISKDNSKSQVFLKLNSLQTDDTATYYCARPVIGNYAMDYWGQG
VL: TQSPASLAVSLGQRATISCRASESVEYYGTRLMQWYQQKPGKAPKLLIYGASNVESGVPARFSGSGSGTDFSLNIHPVEEDDFAMYFCQQSRKVPWTFGGG
notes: also called 5D3 antibody
- Kd [1]: 0.29 nM
- Inhibition of exonuclease activity [2]: 71 molar ratio enzyme:antibody (1:x)
- Inhibition of polymerase activity [2]: 20 molar ratio enzyme:antibody (1:x)
